Measurements: US20200283521A1 (GRANULAR THERAPEUTICS, published 2020)

Key:
Test in all cases: cell array, transfected fixed HEK293 cells
ZG16B = biological target: T1, ZG16B (human, UniProt Q96DA0)
T1 construct: expressed in transfected HEK293 cells
T1 sequence (looked up): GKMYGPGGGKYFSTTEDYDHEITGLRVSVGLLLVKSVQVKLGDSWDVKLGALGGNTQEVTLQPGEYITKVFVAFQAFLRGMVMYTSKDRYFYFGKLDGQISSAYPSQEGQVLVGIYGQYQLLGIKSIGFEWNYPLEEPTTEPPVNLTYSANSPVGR
Experimental: (§1) Transfection of all plasmids was confirmed by screening for the co-encoded marker ZS green (FIG. 13A).
(§2) Primary hits (duplicate spots) were identified by analysing fluorescence (AF647 and ZsGreenl) on ImageQuant. Vectors encoding all hits were sequenced to confirm their correct identities. […] Slides were analysed as above.

OSM = biological target: T2, OSM (human, UniProt P13725)
T2 construct: expressed in transfected HEK293 cells
T2 sequence (looked up): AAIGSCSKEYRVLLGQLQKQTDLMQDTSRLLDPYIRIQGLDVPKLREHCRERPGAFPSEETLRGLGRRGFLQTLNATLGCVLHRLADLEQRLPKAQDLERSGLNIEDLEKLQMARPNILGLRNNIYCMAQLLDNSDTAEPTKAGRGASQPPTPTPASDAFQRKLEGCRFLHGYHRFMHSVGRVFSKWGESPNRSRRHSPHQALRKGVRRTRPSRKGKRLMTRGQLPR
Experimental: as §1, §2

KRT19 = biological target: T3, KRT19 (human, UniProt P08727)
T3 construct: expressed in transfected HEK293 cells
T3 sequence (looked up): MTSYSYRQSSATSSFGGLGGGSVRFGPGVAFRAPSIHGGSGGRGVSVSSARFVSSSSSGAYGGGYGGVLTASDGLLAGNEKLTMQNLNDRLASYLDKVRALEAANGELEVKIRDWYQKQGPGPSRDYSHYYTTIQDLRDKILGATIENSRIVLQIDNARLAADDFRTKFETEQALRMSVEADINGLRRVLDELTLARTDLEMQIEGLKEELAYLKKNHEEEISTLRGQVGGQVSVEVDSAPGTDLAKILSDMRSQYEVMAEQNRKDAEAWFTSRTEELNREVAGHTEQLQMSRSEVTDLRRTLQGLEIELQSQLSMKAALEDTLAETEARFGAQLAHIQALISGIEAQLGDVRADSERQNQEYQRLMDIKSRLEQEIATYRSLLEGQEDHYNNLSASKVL
Experimental: as §1, §2

MSN = biological target: T4, MSN (human, UniProt P26038)
T4 construct: expressed in transfected HEK293 cells
T4 sequence (P26038 2-577 limits assumed): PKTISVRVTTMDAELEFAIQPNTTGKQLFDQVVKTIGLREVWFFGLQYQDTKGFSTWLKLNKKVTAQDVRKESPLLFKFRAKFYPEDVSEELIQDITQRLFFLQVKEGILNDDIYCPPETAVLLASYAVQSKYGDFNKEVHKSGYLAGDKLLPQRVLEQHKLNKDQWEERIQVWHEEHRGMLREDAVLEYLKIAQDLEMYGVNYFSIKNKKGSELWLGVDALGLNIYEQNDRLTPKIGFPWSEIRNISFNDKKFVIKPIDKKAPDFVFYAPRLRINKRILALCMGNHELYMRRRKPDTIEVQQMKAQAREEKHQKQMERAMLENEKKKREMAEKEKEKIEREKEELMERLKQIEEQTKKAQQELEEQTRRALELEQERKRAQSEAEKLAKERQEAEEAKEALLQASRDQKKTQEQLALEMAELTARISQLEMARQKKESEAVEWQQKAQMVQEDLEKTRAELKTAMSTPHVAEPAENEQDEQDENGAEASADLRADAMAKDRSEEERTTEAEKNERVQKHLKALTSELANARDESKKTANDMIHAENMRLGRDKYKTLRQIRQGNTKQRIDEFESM
Experimental: as §1, §2

EDN2 = biological target: T5, EDN2 (human, UniProt P20800)
T5 construct: expressed in transfected HEK293 cells
T5 sequence (looked up): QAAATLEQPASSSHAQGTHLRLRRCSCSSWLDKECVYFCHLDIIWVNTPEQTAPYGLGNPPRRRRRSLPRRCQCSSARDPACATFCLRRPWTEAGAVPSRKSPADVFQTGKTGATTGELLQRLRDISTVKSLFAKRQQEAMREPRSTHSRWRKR
Experimental: as §1, §2

BAIAP2L2 = biological target: T6, BAIAP2L2 (human, UniProt Q6UXY1)
T6 construct: expressed in transfected HEK293 cells
T6 sequence (looked up): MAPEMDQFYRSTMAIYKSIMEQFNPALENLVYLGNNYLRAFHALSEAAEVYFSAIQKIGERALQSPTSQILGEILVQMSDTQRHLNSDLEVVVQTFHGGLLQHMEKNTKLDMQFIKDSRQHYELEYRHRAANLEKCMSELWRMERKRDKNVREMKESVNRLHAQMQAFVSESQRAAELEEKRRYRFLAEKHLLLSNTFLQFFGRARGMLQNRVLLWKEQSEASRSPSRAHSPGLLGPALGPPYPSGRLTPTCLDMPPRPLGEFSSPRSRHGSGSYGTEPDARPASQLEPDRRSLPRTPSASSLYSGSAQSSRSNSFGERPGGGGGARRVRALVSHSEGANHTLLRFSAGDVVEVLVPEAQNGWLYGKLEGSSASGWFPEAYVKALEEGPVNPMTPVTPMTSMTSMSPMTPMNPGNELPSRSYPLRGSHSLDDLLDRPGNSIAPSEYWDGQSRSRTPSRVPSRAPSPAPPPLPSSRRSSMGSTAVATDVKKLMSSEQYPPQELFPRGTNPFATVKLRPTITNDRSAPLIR
Experimental: as §1, §2

SLMAP = biological target: T7, SLMAP (human, UniProt Q14BN4)
T7 construct: expressed in transfected HEK293 cells
T7 sequence (looked up): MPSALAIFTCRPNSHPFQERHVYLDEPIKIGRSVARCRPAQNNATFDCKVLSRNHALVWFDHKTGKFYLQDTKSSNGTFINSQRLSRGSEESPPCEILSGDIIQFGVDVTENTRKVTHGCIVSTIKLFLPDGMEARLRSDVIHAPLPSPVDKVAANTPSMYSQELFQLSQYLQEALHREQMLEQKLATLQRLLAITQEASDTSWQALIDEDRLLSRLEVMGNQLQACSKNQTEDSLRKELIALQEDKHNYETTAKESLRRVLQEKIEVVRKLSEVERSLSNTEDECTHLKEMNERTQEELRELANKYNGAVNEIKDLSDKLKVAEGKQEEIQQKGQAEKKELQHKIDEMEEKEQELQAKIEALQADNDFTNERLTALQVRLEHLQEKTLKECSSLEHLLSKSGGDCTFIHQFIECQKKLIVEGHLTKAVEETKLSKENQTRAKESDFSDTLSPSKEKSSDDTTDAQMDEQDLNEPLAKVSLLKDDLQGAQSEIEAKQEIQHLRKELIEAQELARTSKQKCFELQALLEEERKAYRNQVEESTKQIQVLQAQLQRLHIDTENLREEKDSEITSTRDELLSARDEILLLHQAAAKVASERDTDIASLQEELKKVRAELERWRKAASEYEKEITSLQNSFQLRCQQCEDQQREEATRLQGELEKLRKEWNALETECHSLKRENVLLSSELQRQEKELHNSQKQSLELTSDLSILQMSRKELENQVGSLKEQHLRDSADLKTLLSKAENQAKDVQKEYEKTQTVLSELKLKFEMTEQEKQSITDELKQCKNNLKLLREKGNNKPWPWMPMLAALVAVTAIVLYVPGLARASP
Experimental: as §1, §2

DES = biological target: T8, DES (human, UniProt P17661)
T8 construct: expressed in transfected HEK293 cells
T8 sequence (P17661 2-470 limits assumed): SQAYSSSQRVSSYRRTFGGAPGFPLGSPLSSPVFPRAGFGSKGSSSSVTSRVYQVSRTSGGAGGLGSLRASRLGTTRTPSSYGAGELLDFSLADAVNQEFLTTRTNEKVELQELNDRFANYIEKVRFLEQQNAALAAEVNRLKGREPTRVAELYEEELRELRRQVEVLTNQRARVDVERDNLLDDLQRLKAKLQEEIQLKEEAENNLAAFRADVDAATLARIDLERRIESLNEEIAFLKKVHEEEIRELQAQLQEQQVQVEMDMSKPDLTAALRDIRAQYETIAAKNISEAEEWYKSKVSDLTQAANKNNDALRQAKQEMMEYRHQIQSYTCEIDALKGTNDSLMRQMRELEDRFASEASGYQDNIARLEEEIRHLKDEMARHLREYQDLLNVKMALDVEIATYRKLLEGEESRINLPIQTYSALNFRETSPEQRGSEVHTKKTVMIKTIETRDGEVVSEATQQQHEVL
Experimental: as §1, §2

Measured: binding result

B1: humanized h37M, human IgG1 (antibody, V domains shown)
VH: QVQLVQSGAEVKKPGASVKLSCKASGYTFTDYYINWVRQAPGKGLEWIARIYPGSGNTYYNEKFKGRATLTADKSTSTAYMQLSSLRSEDTAVYFCARGVYYFDYWGQGTTVTVSS
VL: DIVMTQSPSSLSASVGDRVTITCKASQNVRTNVAWYQQKPGKAPKALIYSASYRYSGVPDRFTGSGSGTDFTLTISSLQPEDFADYFCQQYNSYPRTFGGGTKVEIK
notes: human IgG1; terbium-labelled as the tracer of the HTRF assays; also called C-KIT-h37M; h37M-IgG1
no binding (tested: 2 µg/ml): all assays above
